Patent US20140017242A1, “ANTI-BRADYKININ B2 RECEPTOR (BKB2R) MONOCLONAL ANTIBODY” (Diamedica, Inc., priority 2010, published 2014)

Key:
[1] = system: PC-3; test: MTT Cell Proliferation Assay, PC-3; format: cell-based, human; conditions: 120 hours of exposure
From the text: (§1) This Example describes characterization of the cytotoxic activity of herein described anti-BKB2R monoclonal antibodies against a panel of cancer cell lines. BxPC-3 is a human adenocarcinoma cell line originally isolated from the pancreas (pancreatic cancer) (ATCC # CRL-1687; Tan et al., Cancer Invest. 4: 15-23, 1986. PubMed: 3754176). MV-4-11 is a human biphenotypic B myelomonocytic leukemia (mixed-lineage leukemia, MLL-AF4) cell line originally isolated from the peripheral blood (ATCC # CRL-959; Lange et al., Blood 70: 192-199, 1987. PubMed: 3496132). Hep G2 is a human hepatocellular carcinoma cell line isolated from the liver (liver cancer) (ATCC # HB-8065; Aden et al., Nature 282: 615-616, 1979. PubMed: 233137). RS4;11 is a human acute lymphoblastic leukemia (mixed-lineage leukemia, MLL-AF4) cell line isolated from the bone marrow (ATTC # CRL-1873) Stong et al., Blood 65: 21-31, 1985. PubMed: 3917311). HT-29 is a human colorectal adenocarcinoma (ATTC # HTB-38) cell line isolated from the colon (colon cancer). Fogh et al., J. Natl. Cancer Inst. 58: 209-214, 1977. PubMed: 833871). NUGC-4 is a human stomach carcinoma isolated from the stomach paragastiric lymph node (JCRB # JCRB0834; Akiyama et al., Jpn. J. Surg., 18: 438-446, 1988). […]
(§2) The anti-proliferative activity of test compounds against the indicated cell lines was evaluated in vitro using the ATCC's MTT Cell Proliferation Assay (Catalog No. 30-1010K). After the 120 hour incubation with drug (e.g., anti-BKB2R mAb or cisplatin), cell proliferation was measured by addition of MTT reagent to each well and incubation for an additional 4 hrs. […] Optical absorbance (570 nm) of the test wells was measured and then quantitated relative to control wells that received no drug. Results were expressed as percent inhibition versus compound concentration and graphed, as shown in FIGS. 19-25, for cell lines BxPC-3, MV-4;11, HepG2, RS-4;11, HT-29, NUGC-4, and PC-3, respectively.

[2] = system: diet induced obese (DIO) mice; test: Oral glucose tolerance test in DIO mice, single dose of 5F12G1; format: in vivo, mouse; conditions: single s.c. administration 1.0, 0.2 and 0.04 mg/kg
Method: This Example describes evaluation of oral glucose tolerance in diet induced obese (DIO) mice treated with the anti-BKB2R monoclonal antibody 5F12G1 (VH comprising SEQ ID NO:1, VL comprising SEQ ID NO:2). Male C57BL/6J mice (Jackson Laboratory, Bar Harbor, Me.) were maintained on a 60 kcal % fat diet with Research Diet and Arrowhead drinking water ad libitum and permitted to acclimatize for a period of eight weeks. Ten animals per group were treated according to the following treatment groups: 1, sterile PBS (vehicle control); 2, 1.0 mg/kg murine monoclonal antibody (mAb) 5F12G1; 3, 0.2 mg/kg mAb 5F12G1; 4, 0.04 mg/kg mAb 5F12G1.
Oral Glucose Tolerance Test. The Oral Glucose Tolerance Test (OGTT) was performed on overnight fasted (16 hours) mice. […] Blood glucose levels were measured before administration of vehicle or 5F12G1 (−30 minutes) and just before glucose loading (0 minute) and at ensuing timepoints of 15, 30, 60 90 and 120 minutes using an Accu-Chek™ glucose meter (Roche Diagnostics, Indianapolis, Ind.) according to the manufacturer's instructions.
At multiple time points (0, 15, 30, 60, 90 and 120 minutes) blood samples of approximately 50 μl each were collected and processed to isolate the plasma. The plasma samples were analyzed for insulin by an ELISA method using an ultra sensitive mouse insulin ELISA kit (Crystal Chem, Inc., Downers Grove, Ill.). […]

[3] = system: ZDF fa/fa rats; test: Oral glucose tolerance test in ZDF fa/fa rats, humanized mAbs; format: in vivo, rat; conditions: single s.c. administration 0.2 mg/kg
From the text: This example describes evaluation of mouse mAb 5F12G1 and its twelve humanized clones in Zucker Diabetic fatty (ZDF fa/fa) rats for effects on insulin sensitivity in animals. Zucker Diabetic Rats develop symptoms similar to type 2 diabetes and are genetically resistant to insulin. […] Therefore, the Zucker rat is a good model to test the ability of the monoclonal antibody to increase insulin sensitivity, especially in an OGTT.
Male ZDF fa/fa rats were obtained from Charles River (Kingston, ON). Upon arrival, rats were ten weeks of age. The rats were housed individually per cage in a room with a photo cycle of 12 hours of light and 12 hours of dark and an ambient temperature of 70-72° F. and fed on regular rodent diet and water ad libitum. After seven days of acclimatization, rats were grouped into fourteen groups of three rats per group (Table 10).
Oral Glucose Tolerance Test. An oral glucose tolerance test (OGTT) was performed on overnight fasted (16 hours) rats. Rats received subcutaneously administered humanized mAbs, mouse mAb 5F12G1 (positive control) and PBS (vehicle control) at a dose of 0.2 mg/kg body weight, thirty minutes prior to glucose administration. D-Glucose was prepared in distilled water and administered orally at 2 g/kg body weight. Blood glucose levels were measured before administration of humanized mAbs, 5F12G1 or vehicle (t=−30 minutes) and just before glucose loading (0 minute), and at timepoints of 30, 60, 90 and 120 minutes, using Accu-chek™ glucose meter.

[4] = system: BxPC-3; test: MTT Cell Proliferation Assay, BxPC-3; format: cell-based, human; conditions: 120 hours of exposure
From the text: as §1, §2

B1: 5F12G1: murine monoclonal anti-BKB2R antibody (IgG2b,κ), VH comprising SEQ ID NO:1, VL comprising SEQ ID NO:2 (antibody, listed as Mus musculus, V domains shown)
VH: EVKLEESGGGLVQPGGSMKLSCVVSGFTFSDYWMSWVRHSPEMGLEWVAEIRLKSDNYATHYAESVKGRFTISRDDSKSRLYLQINSLRGEDTGIYYCTRDYYAMEYWGQGTSVTVSS
VL: DVVMTQTPLSLPVSLGDQASISCRSSQTIVHSNGKTYLEWYLQKPGQSPKLLIYKVSNRFSGVPDRFSGSGSGTEFTLKISRVETEDLGVYYCFQASHVPYTFGGGTKLEIK
EC 50 Values (ng/ml) PC-3 [1]: 4200 ng/mL
insulin activity in OGTT [2]: dose dependently increased insulin activity
area under curve (AUC) of blood glucose concentration after oral loading of glucose, compared to vehicle control ([2]; 30 min before glucose 2 g/kg): decreased
glucose tolerance [3]: showed improvement in glucose tolerance
area under curve (AUC) of blood glucose concentration after oral administration of glucose, compared to vehicle control ([3]; 30 min prior to glucose 2 g/kg): decreased
EC 50 Values (ng/ml) BxPC-3 [4]: 23000 ng/mL
